The record followed here is article PMC3046128, “Systematic Two-Hybrid and Comparative Proteomic Analyses Reveal Novel Yeast Pre-mRNA Splicing Factors Connected to Prp19” (PLoS ONE, 2011).

As usually defined, the stoichiometry N is a count of units in the complex or per binding partner.

The target in experiment [1] is T1, full length S. cerevisiae Prp19 (S. cerevisiae), P32523.
T1 chain: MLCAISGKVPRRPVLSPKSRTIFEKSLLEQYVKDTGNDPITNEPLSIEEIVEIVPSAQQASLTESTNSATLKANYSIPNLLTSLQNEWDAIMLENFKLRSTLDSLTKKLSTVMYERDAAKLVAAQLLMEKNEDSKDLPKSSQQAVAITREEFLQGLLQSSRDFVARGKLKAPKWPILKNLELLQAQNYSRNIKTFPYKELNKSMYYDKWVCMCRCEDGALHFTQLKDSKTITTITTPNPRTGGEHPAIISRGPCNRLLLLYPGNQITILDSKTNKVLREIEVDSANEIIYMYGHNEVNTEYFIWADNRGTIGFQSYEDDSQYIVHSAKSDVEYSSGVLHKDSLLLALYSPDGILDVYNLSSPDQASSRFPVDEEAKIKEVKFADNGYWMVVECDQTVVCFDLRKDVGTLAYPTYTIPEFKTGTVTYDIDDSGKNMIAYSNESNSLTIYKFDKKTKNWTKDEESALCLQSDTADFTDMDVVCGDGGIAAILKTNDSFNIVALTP
The experiment is described as follows: AUC; sedimentation velocity, 30,000 rpm, 22°C, 280 nm; Sedfit c(s) analysis; ScPrp19 constant with His6-ScUrn1 at 1∶1 or 1∶2.5 molar ratio. To be noted: remark: other sources report otherwise.

In experiment [2] the target is T2, full length S. cerevisiae Prp19 (S. cerevisiae, UniProt P32523 1-503).
T2 construct: Prp19, S. cerevisiae, full length (mass 58.6 kDa); no tag is printed for Prp19 in this experiment; also called ScPrp19; source: E. coli BL21 (pETDuet-1), co-expressed with His6-ScUrn1, purified (Ni-NTA agarose, heparin agarose, gel filtration)
T2 sequence (looked up): T1 chain
The experiment is described as above. To be noted: both partners purified.

The next experiment has as its target T3, S. pombe Prp19-Myc13 (S. pombe, UniProt O14011 1-488).
T3 construct: Prp19 (Cwf8), S. pombe, open reading frame tagged at the 3' end of the endogenous locus; also called SpPrp19; Cwf8; source: S. pombe, tagged at the endogenous locus, in lysate; not shown: Myc13, C-terminal, kept
T3 sequence (looked up): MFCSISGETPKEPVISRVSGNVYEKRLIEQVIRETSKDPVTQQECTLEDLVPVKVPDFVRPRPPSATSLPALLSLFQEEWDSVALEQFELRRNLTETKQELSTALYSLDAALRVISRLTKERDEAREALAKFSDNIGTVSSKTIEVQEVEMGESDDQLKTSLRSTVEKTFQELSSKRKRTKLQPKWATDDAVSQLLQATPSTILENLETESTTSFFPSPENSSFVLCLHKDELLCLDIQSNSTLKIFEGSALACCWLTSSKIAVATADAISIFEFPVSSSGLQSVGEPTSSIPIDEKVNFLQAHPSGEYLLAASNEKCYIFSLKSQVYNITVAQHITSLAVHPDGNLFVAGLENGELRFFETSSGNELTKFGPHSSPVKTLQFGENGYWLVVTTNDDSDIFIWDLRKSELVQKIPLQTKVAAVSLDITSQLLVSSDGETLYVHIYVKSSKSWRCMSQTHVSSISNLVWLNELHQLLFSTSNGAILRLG
The experiment is described as follows: co-IP; anti-HA immunoprecipitate from S. pombe cwf7-HA3 prp19-Myc13 prp17-Myc13 cells; anti-Myc immunoblot quantified on an Odyssey instrument. To be noted: partners not purified.

The target of a further experiment is T4, His6-ScPrp19(144–503) (S. cerevisiae, UniProt P32523 144-503).
T4 construct: Prp19, S. cerevisiae, amino acids 144–503; also called His6-Prp19(144–503); ScPrp19 WD40 domain; source: E. coli BL21 (pET15b), purified (Ni-NTA agarose)
T4 sequence (looked up): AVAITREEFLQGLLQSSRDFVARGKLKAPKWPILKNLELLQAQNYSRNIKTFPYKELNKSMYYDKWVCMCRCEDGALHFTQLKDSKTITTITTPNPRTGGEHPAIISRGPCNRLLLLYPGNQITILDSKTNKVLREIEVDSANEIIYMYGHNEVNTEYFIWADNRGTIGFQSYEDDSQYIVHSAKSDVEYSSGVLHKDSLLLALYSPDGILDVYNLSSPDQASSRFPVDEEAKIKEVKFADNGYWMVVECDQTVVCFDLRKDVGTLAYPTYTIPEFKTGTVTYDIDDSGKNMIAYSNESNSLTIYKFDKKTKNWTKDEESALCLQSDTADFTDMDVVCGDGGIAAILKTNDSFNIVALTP
The experiment is described as follows: pull-down; purified soluble MBP fusions incubated one hour at 4°C with Ni-NTA beads coated with His6-ScPrp19(144–503); washed; SDS-PAGE and Coomassie staining. The conditions noted are these: both partners purified.

B1: full length S. cerevisiae Prp19, P32523 1-503 (natural protein)
chain: T1 chain
On to B1, for which the stoichiometry N in experiment [1] came to 4.

B2: His6-ScUrn1 (natural protein, S. cerevisiae, UniProt Q06525 1-465, looked up)
chain: MRGEWQEFKTPAGKKYYYNKNTKQSRWEKPNLKKGSNLESNAKESQTERKPTFSLELVNGWHLIIYNDGTKLYFNDDSKEFKNDISQEDDSRCRSLIESLDKEKLVLLIGVARGYTMREEDIDKILESCNEEIHLFKRNQDEVERKDEISEEAGDVKSPLQESHTGLVSGYGSSSGEEDEEEDEEEDEENEEQIVNQDISIIDDLNRIDTDDIDERNIFFELFDRYKLDKFSTWSLQSKKIENDPDFYKIRDDTVRESLFEEWCGERSGNATAEESDSEDNSEDDSEVLEPTKYHYLAQIVANAGTIAPDTIPQDIRKQQKALYKAYKIKEYIPSKRDQDKFVSQLLFYYKTFDLEQRKEIFCDCLRDHERDFTGAVESLRQDKELIDRWQTLLKAPADSSSIEDILLSIEHRCCVSPIVVTEPRYYVVGILEKTVVWVRWLAAEVGPSSRFTPVGAGNEPINPE
notes: Urn1, S. cerevisiae (His6-ScUrn1 mass 55.1 kDa); the printed mass fits the whole protein; also called His6-Urn1; source: E. coli BL21 (pETDuet-1), co-expressed with ScPrp19, purified (Ni-NTA agarose, heparin agarose, gel filtration)
Turning to B2, in experiment [2], the “stoichiometry N” value came out at 1 Urn1 per Prp19 tetramer.

B3: S. pombe Prp17-Myc13 (natural protein, UniProt O43071 1-558, looked up)
chain: MLVANYSSDSEEQENSQSPNIQPLLHTENLAPAVVDNVKDDLIVSKGGNSRELARNVPVNEMVQPALGPANPFVTKEQDSIKNSITGYAEREYVPNFVFNQEYYANTHAIYGKRNFDDNEATTSTDLKRKSQKIKERREDPGDPSILEGDGAYKGPWAGYGSEQSSSPLEYSEYEEVESLDVKSEKDTESNNLGQNELLKEQLATPEVETHRSKEETILHKDRLFDYQNRSYMHVPNDVGINLSEEPGEQTCYIPKKHIFTWKGHTKGISCLRFFPISGHLLLSGSMDNQIKIWEVYHDRSLLRTFQGHARPIRDLSFSQDGRSFLSTSFDKTIKLWDTELGKCLNCFNSDRLTNCVKFQVDPDKPNEFLAGTADKRILQFDIRSPDIVQAYDHHLGGINSITFLENGKRFVTTSDDSSMRFWEYGTPVPIKFVADIAMHSMPRVALRPNGKSIACQSLDNCIYVYSAYEKYRQNKKKVFKGYSCSGYSLEVGFSPDGRFVFSGDSSGNACFWDWKTCKLMAKLPAHSGPVQSMAFHPQETSKVATSSIVDGSIKYWD
notes: Prp17, S. pombe, open reading frame tagged at the 3' end of the endogenous locus; also called SpPrp17; source: S. pombe, tagged at the endogenous locus, in lysate; not shown: Myc13, C-terminal, kept
As for B3, the “stoichiometry N” value with S. pombe Prp19-Myc13 is 1.05 ratio of Myc-tagged proteins.

B4: MBP-ScPrp17(1–140) (domain or fragment, S. cerevisiae, UniProt P40968 1-140, looked up)
chain: MGLVDGYDTSSDSDLNFDEGKSVHEKKNGNLHEDTSYEPSSNNIHKRKSHFTKSELKRRRKTRKGDGPWGSWSSSDDETSQASETQKEDQDIFVHALAEDNLDSEQIEVEEVSHFYGKSEKDYQGRGYLYPPNDVDVDLR
notes: Prp17/Cdc40, S. cerevisiae, residues 1–140; source: E. coli BL21 (pMAL-c2X), purified (amylose beads)
In the case of B4, the binding result with His6-ScPrp19(144–503) is listed as “binds”.

B5: MBP-ScUrn1(165–274) (domain or fragment, S. cerevisiae, UniProt Q06525 165-274, looked up)
chain: TGLVSGYGSSSGEEDEEEDEEEDEENEEQIVNQDISIIDDLNRIDTDDIDERNIFFELFDRYKLDKFSTWSLQSKKIENDPDFYKIRDDTVRESLFEEWCGERSGNATAE
notes: source: E. coli BL21 (pMAL-c2X), purified (amylose beads)
With B5, the binding result in the experiment with His6-ScPrp19(144–503) is recorded as “binds”.
